Laboratory results as given in patent US20230250154A1 (CYTONICS, published 2023).

Key:
Test in all cases: cell-based or functional assay
ADAMTS4 = target: T1, ADAMTS4 (human, UniProt O75173 213-685, limits assumed)
T1 sequence (looked up): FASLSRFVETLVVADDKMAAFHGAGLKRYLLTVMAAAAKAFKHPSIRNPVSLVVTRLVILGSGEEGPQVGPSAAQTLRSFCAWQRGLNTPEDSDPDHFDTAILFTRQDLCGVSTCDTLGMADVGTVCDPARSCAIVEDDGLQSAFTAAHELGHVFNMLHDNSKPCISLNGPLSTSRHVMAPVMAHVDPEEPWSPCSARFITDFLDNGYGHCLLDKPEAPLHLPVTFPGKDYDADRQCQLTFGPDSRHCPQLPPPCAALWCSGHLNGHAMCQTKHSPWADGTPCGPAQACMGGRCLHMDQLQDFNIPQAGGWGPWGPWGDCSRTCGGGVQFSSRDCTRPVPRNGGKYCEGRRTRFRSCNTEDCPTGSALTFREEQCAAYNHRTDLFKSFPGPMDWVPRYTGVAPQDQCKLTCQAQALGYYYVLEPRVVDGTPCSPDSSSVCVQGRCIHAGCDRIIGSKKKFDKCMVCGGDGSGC

ADAMTS5 = target: T2, ADAMTS5 (human, UniProt Q9UNA0 262-622, limits assumed)
T2 sequence (looked up): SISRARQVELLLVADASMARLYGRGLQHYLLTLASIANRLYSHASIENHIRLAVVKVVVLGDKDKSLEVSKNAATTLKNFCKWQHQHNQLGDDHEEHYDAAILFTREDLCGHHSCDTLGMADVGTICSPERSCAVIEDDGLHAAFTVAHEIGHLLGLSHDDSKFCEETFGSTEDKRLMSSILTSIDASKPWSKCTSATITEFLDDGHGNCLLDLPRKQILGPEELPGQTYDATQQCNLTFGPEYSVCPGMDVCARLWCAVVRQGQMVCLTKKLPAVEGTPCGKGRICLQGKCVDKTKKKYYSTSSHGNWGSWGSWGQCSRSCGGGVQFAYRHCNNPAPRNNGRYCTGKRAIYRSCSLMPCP

MMP13 = MMP13 (human, UniProt P45452 104-471, limits assumed)

Protease Inhibition (% of WT) (ADAMTS4): 100 % of WT
Protease Inhibition (% of WT) (ADAMTS5): 190 % of WT
Protease Inhibition (% of WT) (MMP13): 11 % of WT
B1: Variant A2M, bait region SEQ ID NO 117 (other)
chain: SVSGKPQYMVLVPSLLHTETTEKGCVLLSYLNETVTVSASLESVRGNRSLFTDLEAENDVLHCVAFAVPKSSSNEEVMFLTVQVKGPTQEFKKRTTVMVKNEDSLVFVQTDKSIYKPGQTVKFRVVSMDENFHPLNELIPLVYIQDPKGNRIAQWQSFQLEGGLKQFSFPLSSEPFQGSYKVVVQKKSGGRTEHPFTVEEFVLPKFEVQVTVPKIITILEEEMNVSVCGLYTYGKPVPGHVTVSICRKYSDASDCHGEDSQAFCEKFSGQLNSHGCFYQQVKTKVFQLKRKEYEMKLHTEAQIQEEGTVVELTGRQSSEITRTITKLSFVKVDSHFRQGIPFFGQVRLVDGKGVPIPNKVIFIRGNEANYYSNATTDEHGLVQFSINTTNVMGTSLTVRVNYKDRSPCYGYQWVSEEHEEAHHTAYLVFSPSKSFVHLEPMSHELPCGHTQTVQAHYILNGGTLLGLKKLSFYYLIMAKGGIVRTGTHGLLVKQEDMKGHFSISIPVKSDIAPVARLLIYAVLPTGDVIGDSAKYDVENCLANKVDLSFSPSQSLPASHAHLRVTAAPQSVCALRAVDQSVLLMKPDAELSASSVYNLLPEKDLTGFPGPLNDQDDEDCINRHNVYINGITYTPVSSTNEKDMYSFLEDMGLKAFTNSKIRKPKMCPQLEENFFGVTEGEARGSPTSEDLVVQKEEEGLGSEAIPMSIPKLRKYFPETWIWDLVVVNSAGVAEVGVTVPDTITEWKAGAFCLSEDAGLGISSTASLRAFQPFFVELTMPYSVIRGEAFTLKATVLNYLPKCIRVSVQLEASPAFLAVPVEKEQAPHCICANGRQTVSWAVTPKSLGNVNFTVSAEALESQELCGTEVPSVPEHGRKDTVIKPLLVEPEGLEKETTFNSLLCPSGGEVSEELSLKLPPNVVEESARASVSVLGDILGSAMQNTQNLLQMPYGCGEQNMVLFAPNIYVLDYLNETQQLTPEIKSKAIGYLNTGYQRQLNYKHYDGSYSTFGERYGRNQGNTWLTAFVLKTFAQARAYIFIDEAHITQALIWLSQRQKDNGCFRSSGSLLNNAIKGGVEDEVTLSAYITIALLEIPLTVTHPVVRNALFCLESAWKTAQEGDHGSHVYTKALLAYAFALAGNQDKRKEVLKSLNEEAVKKDNSVHWERPQKPKAPVGHFYEPQAPSAEVEMTSYVLLAYLTAQPAPTSEDLTSATNIVKWITKQQNAQGGFSSTQDTVVALHALSKYGAATFTRTGKAAQVTIQSSGTFSSKFQVDNNNRLLLQQVSLPELPGEYSMKVTGEGCVYLQTSLKYNILPEKEEFPFALGVQTLPQTCDEPKAHTSFQISLSVSYTGSRSASNMAIVDVKMVSGFIPLKPTVKMLERSNHVSRTEVSSNHVLIYLDKVSNQTLSLFFTVLQDVPVRDLKPAIVKVYDYYETDEFAIAEYNAPCSKDLGNADYKDDDDKGASHHHHHH
